According to patent US20160287696A1, “PAN POLLEN IMMUNOGENS AND METHODS AND USES FOR IMMUNE RESPONSE MODULATION” (LA JOLLA INSTITUTE FOR ALLERGY AND IMMUNOLOGY, priority 2013, published 2016):

What was measured:
splenocytes [1] = assay: Sensitization pattern: in vitro proliferation (3H-thymidine) of splenocytes of mice sensitized to Phl p extract; assay type: cell-based, BALB/c mice; conditions: mice sensitized IP with Phl p extract; 6 days stimulation
Source text: Initially, the sensitization pattern of an immunogen of the invention (NTGA 86/51) was investigated in BALB/c mice sensitized to Phl p extract (FIG. 2). For the purposes of these studies, the immunogen were expressed in E. Coli using standard expression protocols.
Mice were sensitized by one intraperitoneal injection with Phl p extract adsorbed to aluminium hydroxide. Eleven days later the mice were euthanized and splenocytes were stimulated in vitro with Phl p extract, Phl p 1, Phl p 5, NTGA 86/51. The cells were incubated for 6 days at 37° C. under 5% CO2 and incorporated 3H-thymidine was counted and used as a measure for T cell proliferation.

[2] = tested on: cultured PBMCs of the allergic donors; assay: ELISPOT of IL-5 or IFNg production by cultured PBMCs of TG allergic donors in response to peptide; assay type: cell-based, human; conditions: NTGA number given = criterion met; TG allergic donors n=20
How it was run: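 PBMCs from Timothy grass-allergic donors (n=20), expanded in vitro with TG extract (50 μg/mL) or peptide pool, then plated at 1×10^5 cells/well with single 15-mer peptide (10 μg/mL). IL-5 or IFNg measured by ELISPOT; peptide response positive at ≥20 SFCs/10^6 PBMCs, P .05, stimulation index ≥2; value is number of responding donors.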

splenocytes [3] = assay: Bystander tolerance induction by prophylactic SLIT in mice, IP sensitization with NTGA 86/51 together with OVA; assay type: in vivo
Source text: Bystander tolerance induction by prophylactic SLIT treatment with A0086 (FIG. 4). The ability of NTGA 86/51 to induce bystander tolerance, i.e. to induce tolerance against a non-related protein was investigated by SLIT treating the mice for two weeks with NTGA 86/51 followed by an IP sensitization with NTGA 86/51 together with the unrelated protein ovalbumin (OVA). Following this splenocytes were stimulated in vitro either with NTGA 86/51to confirm the ability of this protein to induce tolerance towards itself, or with OVA to investigate if NTGA 86/51 can induce bystander tolerance towards an unrelated protein.

splenocytes [4] = assay: Prophylactic SLIT tolerance induction in mice, splenocyte proliferation; assay type: in vivo, BALB/c mice; conditions: prophylactic SLIT two weeks
Source text: Then the tolerance induction of NTGA 86/51 was investigated in a prophylactic mice model using sublingual administration (FIG. 3)
The ability of NTGA 86/51 and NTGA 6 to induce prophylactic tolerance was investigated by SLIT treating naive BALB/c mice with NTGA 86/51 or NTGA 6 for two weeks (Monday-Friday) followed by one Phl p extract sensitization or sensitization to the immunogen itself (NTGA 86/51 or NTGA 6) as described above. Eleven days after the sensitization, splenocytes were harvested and stimulated in vitro with NTGA 86/51 as well as Phl p extract.

B1: NTGA 86/51: Phl p wild type full length protein from which PG+ peptides of NTGA's 86 and 51 derive (protein)
chain: MSPAEPTREESVYMAKLAEQAERYEEMVEFMERVAKATGGAGPGEELSVEERNLLSVAYKNVIGARRASWRIISSIEQKEEGRGNDAHATTIRSYRSKIEAELAKICDGILALLDSHLVPSAGAAESKVFYLKMKGDYHRYLAEFKSGAERKEAAESTMNSYKAAQDIALADLAPTHPIRLGLALNFSVFYYEILNSPDRACNLAKQAFDEAISELDSLGEESYKDSTLIMQLLRDNLTLWTSDTNEDGGDEIKEAPAPKESGD
modifications: Phleum Pratense
notes: Phl p wild type full length protein from which PG+ peptides of NTGA's 86 and 51 derive
in vitro T-cell response (splenocyte proliferation) compared to the response to Phl p 5 (splenocytes [1]): much weaker
in vitro T-cell response (splenocyte proliferation) compared to the response towards the Phl p extract (splenocytes [1]): much weaker
NTGA's containing at least one T cell epitope, Th+ (Col 2) [2]: 86/51
NTGA 86/51 specific in vitro proliferation of splenocytes vs buffer treated mice (splenocytes [3]; FIG. 4): reduced proliferation
OVA specific in vitro proliferation of splenocytes vs buffer treated mice (bystander tolerance) (splenocytes [3]; FIG. 4B): decreased
tolerance towards the immunogen itself (proliferation of splenocytes vs buffer (sham) treated mice) (splenocytes [4]; FIG. 3A / 3C): capable of inducing tolerance towards the immunogen itself
tolerance towards Phl p extract (proliferation of splenocytes vs buffer (sham) treated mice) (splenocytes [4]; FIG. 3B): capable of inducing tolerance
